Assay results taken from the RNAGym collection of RNA variant scans (doi:10.7554/elife.80360).

B1: Hairpin Ribozyme (parent)
chain: GUCCUCUUUCACGUGCGCGUGAAAGAGAGAAGUGAACCAGAGAAACACACGUUGUGGUAUAUUACCUGGUA

Variants of: B1
Assay: self-cleavage, relative activity (ratio to wild type); higher = more cleavage; co-transcriptional

Row | Variant | self-cleavage
1 | A36C C66U | 0.264
2 | A36G G69C | 0.449
3 | A35G A59G | 0.266
4 | A35G A59U | 0.229
5 | A35C C65U | 0.433
6 | A35C C65G | 0.387
7 | A35U U52C | 0.811
8 | A35U U52G | 0.553
9 | A35U U52A | 0.715
10 | A35C G69A | 0.378
11 | A35C G69C | 0.126
12 | A36C G57C | 0.17
13 | A36C G57A | 0.125
14 | A35U U58A | 0.464
15 | A35C A45C | 0.16
16 | A35C A49C | 0.147
17 | A35C A49G | 0.341
18 | A36G A64C | 0.17
19 | A35C A43U | 0.194
20 | A35C A43G | 0.155
21 | A36C A49G | 0.28
22 | A36C A49C | 0.144
23 | A35U C48G | 0.215
24 | A35U C48U | 0.162

Row | Variant | self-cleavage
25 | A35U C48A | 0.186
26 | A36G C46A | 0.0586
27 | A35G A39U | 0.265
28 | A36C U62G | 0.0267
29 | A36C U62C | 0.192
30 | A35U U60C | 0.559
31 | A36G C38A | 0.146
32 | A36G C38U | 0.523
33 | A35G C66G | 0.127
34 | A35G C66A | 0.156
35 | A35C U52A | 1.14
36 | A35G U67C | 0.0903
37 | A35G U67G | 0.206
38 | A35G U67A | 0.201
39 | A35U C50G | 0.369
40 | A35U C50A | 0.295
41 | A35C C50A | 0.364
42 | A35U U67C | 0.176
43 | A35G A47C | 0.312
44 | A35G A47U | 0.178
45 | A35G A47G | 0.142
46 | A35C A47G | 0.195
47 | A35C A47U | 0.179
48 | A35U A39C | 0.208

Row | Variant | self-cleavage
49 | A36G G54U | 0.816
50 | A35G U70C | 0.796
51 | A35G U70A | 0.927
52 | A35G U70G | 0.711
53 | A35G U58A | 0.73
54 | A35C A41G | 0.907
55 | A35C A41C | 1.13
56 | A36G A47U | 0.127
57 | A36G A47C | 0.372
58 | A35C U63C | 0.0565
59 | A35C G54C | 0.513
60 | A35G U55A | 0.292
61 | A35U G68A | 0.29
62 | A36C G51U | 0.678
63 | A36C A47G | 0.0823
64 | A35G A41U | 1.28
65 | A35G A41G | 0.814
66 | A35U G42A | 0.181
67 | A35U G42C | 0.246
68 | A35C G42C | 0.505
69 | A35G A71U | 0.837
70 | A35C G51A | 1.26
71 | A36G A49C | 0.0302
72 | A35G A45G | 0.0332

Row | Variant | self-cleavage
73 | A35G A45C | 0.106
74 | A36C C48A | 0.142
75 | A36C C48G | 0.118
76 | A35C U67A | 0.301
77 | A35G U62A | 0.368
78 | A35G U62C | 0.338
79 | A35C U53G | 0.403
80 | A36C U70G | 0.671
81 | A35U G54U | 0.455
82 | A35C C38G | 0.112
83 | A35C C38U | 0.312
84 | A36G C50G | 0.382
85 | A36G C50U | 0.407
86 | A35G A64G | 0.277
87 | A36G G57U | 0.317
88 | A36G G51C | 0.629
89 | A36C U53C | 0.953
90 | A36G A71C | 1.23
91 | A35U G69A | 0.184
92 | A35U G69U | 0.111
93 | A35U A43G | 0.0794
94 | A35C A61U | 0.125
95 | A35U A49C | 0.17
96 | A35C G40A | 0.208

Row | Variant | self-cleavage
97 | A35G G42U | 0.304
98 | A35U A59G | 0.18
99 | A35G C50U | 0.355
100 | A35C A71U | 0.668
101 | A35G U60C | 0.917
102 | A36G A59U | 0.0811
103 | A36G A59C | 0.102
104 | A36G A59G | 0.146
105 | A36C U52C | 0.556
106 | A36G U52A | 0.791
107 | A36C A43G | 0.131
108 | A35U A47G | 0.137
109 | A35U A47U | 0.185
110 | A36G C66U | 0.482
111 | A36G C37G | 0.287
112 | A36C A59G | 0.203
113 | A35G G56C | 0.0996
114 | A35G U52C | 1.29
115 | A36C A64C | 0.11
116 | A35U A61U | 0.0854
117 | A36G A41G | 0.536
118 | A36G U58A | 0.836
119 | A35C A39U | 0.445
120 | A36G G56C | 0.0421

Row | Variant | self-cleavage
121 | A36G G56A | 0.146
122 | A36C A45G | 0.133
123 | A36C C46U | 0.15
124 | A36C C46G | 0.134
125 | A35G A36G | 0.749
126 | A35U C37G | 0.194
127 | A35U A45U | 0.151
128 | A35G G69C | 0.204
129 | A35G G69U | 0.285
130 | A35G G69A | 0.204
131 | A36G A61C | 0.328
132 | A36G C48G | 0.259
133 | A35C C46U | 0.221
134 | A35G G68A | 0.309
135 | A35U U63A | 0.227
136 | A35U U63G | 0.147
137 | A36C U60A | 0.439
138 | A35G C37U | 0.302
139 | A35C C37U | 0.486
140 | A35C C37A | 0.269
141 | A36G A44G | 0.276
142 | A36G A44C | 0.0853
143 | A35C C48A | 0.103
144 | A35G A44G | 0.177

Row | Variant | self-cleavage
145 | A35G A44U | 0.14
146 | A35G A44C | 0.211
147 | A36C U63G | 0.0757
148 | A35U A44G | 0.234
149 | A35G C48G | 0.213
150 | A35G G40A | 0.24
151 | A35G G40U | 0.161
152 | A36G U53G | 0.507
153 | A36G U53A | 1.2
154 | A36G G42A | 0.23
155 | A36C G69A | 0.24
156 | A36C G69U | 0.227
157 | A36C A61G | 0.148
158 | A35U A41U | 1.41
159 | A36C C65A | 0.52
160 | A35C G56U | 0.153
161 | A35C G56A | 0.161
162 | A35G A43G | 0.082
163 | A35G A43U | 0.223
164 | A36C G40U | 0.122
165 | A36C G40C | 0.135
166 | A35U C65A | 0.625
167 | A35G G54U | 0.513
